Patent US20160280750A1 (NEWSOUTH INNOVATIONS, published 2016)

T1: HLA-B*2705 (human, UniProt P01889 25-302 at identity 0.93))
T1 construct: MHC class I molecule assembled with candidate peptides in the REVEAL assay (ProImmune)
T1 MHC heavy: not shown

T2: HLA-B*2705 (human), P01889
T2 chain: not shown


Molecular target: T1, HLA-B*2705
Test: REVEAL MHC-peptide binding assay, incorporation into HLA-B*2705

Row | Binder | % Positive Control (REVEAL binding score)
1 | DLQDFFSSL [Peptide I.D. 33 DLQDFFSSL] | 0.35 % of positive control
2 | LEDIRLDGN [Peptide I.D. 13 LEDIRLDGN] | 2.17 % of positive control
3 | ALQYLRLSH [Peptide I.D. 22 ALQYLRLSH] | 0.13 % of positive control
4 | TRRQLEDIR [Peptide I.D. 9 TRRQLEDIR] | 0.02 % of positive control
5 | RQLEDIRLD [Peptide I.D. 11 RQLEDIRLD] | 0.5 % of positive control
6 | KHTRRQLED [Peptide I.D. 7 KHTRRQLED] | 0.04 % of positive control
7 | RSIDLQDFF [Peptide I.D. 30 RSIDLQDFF] | 0.08 % of positive control
8 | FKRFNALQY [Peptide I.D. 17 FKRFNALQY] | 0.15 % of positive control
9 | HTRRQLEDI [Peptide I.D. 8 HTRRQLEDI] | 0.04 % of positive control
10 | ARGQPGVMG [Peptide I.D. 37 ARGQPGVMG] | 0 % of positive control
11 | DEYFKRFNA [Peptide I.D. 14 DEYFKRFNA] | 0.06 % of positive control
12 | LQDFFSSLI [Peptide I.D. 34 LQDFFSSLI] | 0.11 % of positive control
13 | LRSIDLQDF [Peptide I.D. 29 LRSIDLQDF] | 0.08 % of positive control
14 | HKHTRRQLE [Peptide I.D. 6 HKHTRRQLE] | 0 % of positive control
15 | FNALQYLRL [Peptide I.D. 20 FNALQYLRL] | 1.81 % of positive control
16 | RRRWRRLTV [Peptide I.D. 36 RRRWRRLTV] | 44 % of positive control
17 | YFKRFNALQ [Peptide I.D. 16 YFKRFNALQ] | 0.47 % of positive control
18 | SIDLQDFFS [Peptide I.D. 31 SIDLQDFFS] | 0.26 % of positive control
19 | LNLRSIDLQ [Peptide I.D. 27 LNLRSIDLQ] | 0.11 % of positive control
20 | QLEDIRLDG (Opticin nonamer) [Peptide I.D. 12 QLEDIRLDG] | 0 % of positive control
21 | RFNALQYLR [Peptide I.D. 19 RFNALQYLR] | 1.2 % of positive control
22 | NLRSIDLQD [Peptide I.D. 28 NLRSIDLQD] | 0.17 % of positive control
23 | NALQYLRLS [Peptide I.D. 21 NALQYLRLS] | 0.11 % of positive control
24 | IDLQDFFSS [Peptide I.D. 32 IDLQDFFSS] | 0.13 % of positive control
25 | EYFKRFNAL [Peptide I.D. 15 EYFKRFNAL] | 0.48 % of positive control
26 | QYLRLSHNE [Peptide I.D. 24 QYLRLSHNE] | 0.5 % of positive control

Molecular target: T2, HLA-B*2705 (human), P01889
Test: as above

Row | Binder | % Positive Control (REVEAL binding score) (% of positive control)
27 | DPCTTWCDA (modifications not checked) [Peptide I.D. 35 …] | 2.18
